From article PMC4674680 (2015)

B1: GST-iBox (Inka1 166–203) (domain or fragment)
chain: EAEDWTAALLNRGRSRQPLVLGDNCFADLVHNWMELPE
modifications: GST carrier left out. Limits 166-203 are the paper's, taken from the 4XBR fusion: Flag/SGS 1-12, iBox 13-50, EF linker 51-52, PAK4 278-591 from 53 (12+38+2+314=366). Entity position = paper number - 153 (F191=F38, L194=L41, V195=V42, P(0)=P30). The paper's Inka1 numbering may differ from UniProt Q96EL1 (paper's C-terminus is 285, entry is 287 aa).
B2: iBox-C24 (peptide)
chain: VSRFAALMSCRSRQPIICNDVSYL
modifications: synthetic peptide; exact limits are only in Fig. 1d; taken as the last 24 residues because the text gives a 24mer of iBox-C (C-terminal 22 aa of Inka1)
B3: iBox24C (peptide)
chain: SRQPLVLGDNCFADLVHNWMELPE
modifications: synthetic peptide; taken as the C-terminal 24 residues (paper numbering 180-203) of the 38-aa iBox; 4XBR position = Inka1 paper number minus 153; exact limits are only in Fig. 1d

Each binder was assayed against 6His–PAK4cat (PAK4 286–591) (human, UniProt O96013 286-591) (assay: kinase activity inhibition (GST-Raf13 phosphorylation)).
6His–PAK4cat (PAK4 286–591), sequence (O96013 286-591): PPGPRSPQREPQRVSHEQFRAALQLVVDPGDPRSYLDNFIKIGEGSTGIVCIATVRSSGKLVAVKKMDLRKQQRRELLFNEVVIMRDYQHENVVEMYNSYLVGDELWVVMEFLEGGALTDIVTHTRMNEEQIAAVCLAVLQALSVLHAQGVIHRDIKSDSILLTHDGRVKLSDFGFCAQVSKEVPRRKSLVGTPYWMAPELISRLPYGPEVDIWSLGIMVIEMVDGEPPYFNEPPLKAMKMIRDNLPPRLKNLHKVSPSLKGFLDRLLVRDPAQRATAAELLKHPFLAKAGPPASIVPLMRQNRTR

Binder | IC50 [nM]
B1 | 36
AEDWTAALLNRGRSRQPLVLGDW [iBox 23mer synthetic peptide] | 229
B2 | 300
B3 | 382
